Data: patent US20130316374A1, “BREAST CANCER DIAGNOSTICS” (IMBA - INSTITUT FUR MOLEKULARE BIOTECHNOLOGIE GMBH, priority 2010, published 2013)

Tests used:
[1] = system: SKBR3 breast cancer cells; experiment: Growth curve of SKBR3 breast cancer cells; type: cell-based, human; details: RANKL (1 μg/ml), 3 days
Description: a, Western blotting for phosphorylated (P) p65 NFκB, total p65 NFκB, phosphorylated (P) IκBα, total IκBα, phosphorylated (P) ERK1/2, total ERK1/2, phosphorylated (P) p38-MAPK, and p38-MAPK in human SKBR3 breast cancer cells in response to RANKL stimulation (1 μg/ml). Data are representative of 3 experiments. b, Growth curve of SKBR3 breast cancer cells cultured in normal growth medium (control, DMEM supplemented with 10% FCS) or in the presence of RANKL (1 μg/ml). Cell numbers were determined by counting live cells (trypan blue-exclusion) over 3 days. c, Onset of palpable mammary tumors in NFATc1^Δmam (n=10) and age matched littermate control (n=16) females treated with MPA pellets and DMBA. Data are shown as percentage of tumor free mice after the last DMBA challenge. No significant difference was found. d, Quantification of NFATc1 mRNA expression in purified mammary epithelial cells (MECs) and MPA-driven mammary tumors from NFATc1^Δmam and littermate control females. mRNA was determined by qRT-PCR. Data are shown as fold change compared to control (+/−sem). n=5 Per group. *P<0.05 (Student's t-test).

[2] = system: primary mouse mammary epithelial cells; experiment: DNA damage responses (cell cycle arrest, apoptosis) in primary mouse mammary epithelial cells; type: cell-based; details: RANKL 1 μg/ml
Description: a, Western Blot analysis for γH2AX, phosphorylated (P) Chk1, total Chk1, p53 and β-actin in isolated primary mouse mammary gland epithelial cells in response to γ-irradiation (2 Gray) in the presence (1 μg/ml) or absence of RANKL stimulation. b,c, FACS analysis of propidium iodide (PI) stained b, mammary epithelial cells and c, SKBR3 human breast cancer cells after γ-irradiation (2 Gray) in the absence or presence (1 μg/ml) of RANKL. Data are representative of at least 3 experiments. Apoptotic cells with a DNA content <2n appear in the sub-G1 region. Percent of cells in sub-G1 (M1), G1-phase (M2), S/G2/M-phase (M3) as well as polyploid cells with a DNA content >4n are given for the indicated time points.
a,b, FACS analysis of a, mammary epithelial cells and b, SKBR3 human breast cancer cells incubated with the genotoxic agent doxorubicin (Dox, 1 μM) in the presence (1 μg/ml) or absence of RANKL. Data are representative of at least 3 experiments. Percent of cells in sub-G1 (M1), G1-phase (M2), S/G2/M-phase (M3) as well as polyploid cells with a DNA content >4n are given for 24 and 36 hours after doxorubicin treatment. c, mRNA expression of pro-apoptotic genes Bim, Puma, and Noxa 6 hours after γ-irradiation (2 Gray) in the presence (1 μg/ml) or absence of RANKL stimulation. Data are shown as fold change compared to control (+/−sem). n=3). *P<0.05; **P<0.005 (Student's t-test).
For measurement of cell cycle arrest and apoptosis primary mouse mammary epithelial cells and SKBR3 human breast cancer cells were seeded at a cell-density of 100000 cells/well in a 6-well plate and allowed to grow for 24 hours. Cells where then treated with doxorubicin (1 μM) or γ-irradiation (2 Gray) in the absence or presence of recombinant RANKL (1 μg/ml). Cell cycle arrest and numbers of dead cells were determined using propidium iodine staining. To determine in vivo mammary gland epithelial cell death, control and RANK^Δmam littermate females were γ-irradiated with a total dose of 5 Gray (Gy). Six hours later, mammary glands were isolated and immunostained for active Caspase 3 (Cell Signaling) indicative of apoptosis.

B1: RANKL: Receptor Activator of NF-κB Ligand; recombinant murine RANKL used for stimulation (protein, UniProt O35235 139-316, looked up)
Tumor necrosis factor ligand …: FSGAPAMMEGSWLDVAQRGKPEAQPFAHLTINAASIPSGSHKVTLSSWYHDRGWAKISNMTLSNGKLRVNQDGFYYLYANICFRHHETSGSVPTDYLQLMVYVVKTSIKIPSSHNLMKGGSTKNWSGNSEFHFYSINVGGFFKLRAGEEISIQVSNPSLLDPDQDATYFGAFKVQDID
proliferation of SKBR3 cells [1]: induced
γ-irradiation-induced upregulation of Bim, Puma, and Noxa mRNA ([2]; 6 hours after γ-irradiation (2 Gray)): did not occur
cell death after DNA damage ([2]; doxorubicin (1 μM)): marked protection from cell death
early cell cycle arrest after DNA damage ([2]; doxorubicin (1 μM)): did not alter
cell death after DNA damage ([2]; γ-irradiation (2 Gray)): marked protection from cell death
early cell cycle arrest after DNA damage ([2]; γ-irradiation (2 Gray)): did not alter
induction of γH2AX and p53 or activation of Chk1 ([2]; γ-irradiation (2 Gray)): did not alter
